We go through 10 molecules from patent US20110190477A1 (G2 INFLAMMATION, published 2011).

In general, EC50 refers to the concentration needed to bring the measured effect to its halfway point. Read a high EC50 as lower potency in that assay.

Residue numbers refer to the chain shown, from its start. Several values for one entry are separate records, joined by “and”; a condition that tells them apart may be missing. Equal values may be shown once.

The target in test [1] is T1, human C5a receptor (human, UniProt P21730 1-350).
T1 construct: On human neutrophils, L1.2/hC5aR transfectants or neutrophils of hC5aR knock-in mice; also called hC5aR; C5aR1
T1 chain: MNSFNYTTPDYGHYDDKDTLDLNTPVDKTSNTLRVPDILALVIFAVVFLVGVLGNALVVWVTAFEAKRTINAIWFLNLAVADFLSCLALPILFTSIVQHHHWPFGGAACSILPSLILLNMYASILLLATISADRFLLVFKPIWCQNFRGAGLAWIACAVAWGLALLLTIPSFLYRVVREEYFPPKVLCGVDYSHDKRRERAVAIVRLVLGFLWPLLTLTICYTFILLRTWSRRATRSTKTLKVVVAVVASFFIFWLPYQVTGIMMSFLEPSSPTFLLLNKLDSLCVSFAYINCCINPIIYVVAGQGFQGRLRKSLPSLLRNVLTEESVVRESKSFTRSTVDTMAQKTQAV
The test is described as follows: 125I-C5a displacement, L1.2/hC5aR transfectants. On the procedure: (§1) The ability of humanized Abs to inhibit ¹²⁵I-labelled C5a binding to L1.2 cells transfected with hC5aR gene or human neutrophils was tested as described below. Recombinant human C5a was obtained from Sigma Chemical Co. (St. Louis, Mo.). ¹²⁵I-Bolton-Hunter-labelled complement C5a was purchased from NEN-Dupont (Boston, Mass.), with a specific activity of 2200 Ci/mM. Briefly, L1.2/hC5aR stable transfectants were grown for several days prior to an experiment then treated overnight with 5 mM butyric acid to stimulate hC5aR expression prior to the binding assay. Human neutrophils were purified from venous blood collected from healthy volunteers. Neutrophils were separated from other leukocytes by percoll density centrifugation followed by a red blood cell lysis step. Both cell types were washed once in PBS and resuspended in binding buffer (50 mM Hepes, pH 7.5, 1 mM CaCl₂, 5 mM MgCl₂, 0.5% BSA) at a concentration of 1×10⁷/ml. Aliquots of 40 μl (4×10⁵ cells) were dispensed into 96 well microtitre plates, followed by the addition of cold competitor (antibody or human C5a). Cells and cold competitor were incubated for 15 min at room temperature before-radiolabelled C5a was added to a final concentration of 0.4 nM. The final reaction volume was 120 μl. After 60 min incubation at room temperature, the cells were washed three times with 150 μl of binding buffer containing 0.15 M NaCl. Cell pellets were then counted on a TopCount Scintillation Counter (Packard). Samples were assayed in triplicate at each of 6-8 concentrations. Each antibody was tested in at least 3 separate assays. The number of counts in each sample was expressed as a percentage of the maximum ¹²⁵I-C5a binding observed in wells with no added cold competitor after subtraction of background.
(§2) Results of this analysis (the displacement curves) for each of the humanized antibodies compared to the mouse antibody 7F3 in human neutrophils and L1.2/hC5aR transfectants are given in FIGS. 11 and 12 respectively. […] These values were obtained using Graphpad Prism software fitting the data to the non-linear equation for one site competition.

For test [2], the target named is T1, human C5a receptor. The test is described as follows: cell-based or functional assay.
Test [3] concerns the target T1, human C5a receptor. The test is described as follows: cell-based or functional assay.
The target of test [4] is T1, human C5a receptor. As to the kind of experiment: 125I-C5a displacement, human neutrophils. On the procedure: as §1, §2
The target of test [5] is T1, human C5a receptor. As to the kind of experiment: saturation binding to human neutrophils at 4 C, flow cytometry. On the procedure:
Human neutrophils, isolated as described above, were resuspended in dPBS and 1×10⁵ cells (in 25 μl) were dispensed into wells of a 96-well plate. An equal volume (25 μl) of 2× antibody (diluted in PBS) was added to each well. The final antibody concentration using 2-fold serial dilution ranged from 40 to 0 ug/ml (using unlabelled hAb-Q, hAb-J and 7F3). Cells and antibody were incubated for 20 min times at 4° C. After incubation, 100 μl PBS+1% BCS was added to each well and the plate centrifuged at 2,000 rpm for 3 min. […] The cells were washed once as above and resuspended in PBS+1% FCS for analysis by flow cytometry. FSC v SSC scatter was used to identify neutrophils, with the Median Fluorescence Intensity (MFI) determined for each sample. EC50 values were determined by fitting data (MFI—background vs log₁₀[antibody concentration]) to the sigmoidal dose-response (variable slope) i.e. 4-parameter logistic equation using GraphPad Prism (v4.0) software. Bₘₐₓ and KD were determined by fitting data to the one-site binding hyperbola equation.
In general terms: A flow cytometer gives signals particle by particle.

In test [6] the target is T1, human C5a receptor. As to the kind of experiment: 125I-C5a displacement by cold C5a, human neutrophils.

B1: humanized anti-C5aR antibody hAb-A (antibody, human IgG4, kappa, V domains shown)
VH: QVQLVQSGAEVKKPGASVKISCKASGYAFSNSWMNWVRQAPGKGLEWMGRIYPGDGDTKYNGKFKGRVTITADESTSTAYMELSSLRSEDSAVYFCARFLLISTVTAVDYWGQGTTVTVSS
VL: DVVMTQSPLSLPVTLGEPASISCRSSQSLVHSNGNTYLHWYLQKPGQSPQLLIYKVSNRFSGVPDRFSGSGSGTDFTLKISRVEAEDVGVYFCSQSTLVPLTFGQGTKLEIKT
notes: also called antibody A
Consider B1, for which, in the test with human C5a receptor [1], it took 2.78 nM to reach a half-maximal effect (EC50).

B2: humanized anti-C5aR antibody hAb-K (antibody, human IgG4 S228P, kappa, V domains shown)
VH: B1 VH with I20V, K43Q, I70M, E74T, A79V, S91T, F95Y, T116L
VL: B1 VL with S7T, E17Q, Y41C, F92Y
On to B2, for which the “blocking of human neutrophil migration towards C5a at 5 µg/ml antibody” value (from here on “blocking … at 5 µg/ml antibody”) with human C5a receptor [2] is 55%.

B3: humanized anti-C5aR antibody hAb-M (antibody, human IgG4, kappa)
light: DVVMTQSPLSLPVTLGEPASISCRSSQSLVHSNGNTYLHWYLQKPGQSPQLLIYKVSNRFSGVPDRFSGSGSGTDFTLKISRVEAEDVGVYFCSQSTLVPLTFGQGTKLEIKTVAAPSVFIFPPSDEQLKSGTASVVCLLNNFYPREAKVQWKVDNALQSGNSQESVTEQDSKDSTYSLSSTLTLSKADYEKHKVYACEVTHQGLSSPVTKSFNRGEC
heavy: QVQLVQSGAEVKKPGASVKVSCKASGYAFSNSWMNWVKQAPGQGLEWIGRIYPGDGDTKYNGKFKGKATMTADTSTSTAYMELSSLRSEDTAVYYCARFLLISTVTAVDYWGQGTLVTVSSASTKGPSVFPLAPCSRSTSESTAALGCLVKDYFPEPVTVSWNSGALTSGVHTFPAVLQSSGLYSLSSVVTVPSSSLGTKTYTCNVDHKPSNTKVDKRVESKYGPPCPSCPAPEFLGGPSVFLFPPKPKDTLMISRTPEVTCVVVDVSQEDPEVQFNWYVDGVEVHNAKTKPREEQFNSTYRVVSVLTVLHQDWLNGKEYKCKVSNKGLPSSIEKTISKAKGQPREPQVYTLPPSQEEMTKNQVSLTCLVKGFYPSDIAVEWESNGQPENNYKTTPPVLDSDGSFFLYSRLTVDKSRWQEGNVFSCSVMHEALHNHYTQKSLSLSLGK
notes: also called antibody M
In the case of B3, the values for the half-maximal effective concentration (EC50) in the test with human C5a receptor [1] and with human C5a receptor [4] were 0.95 nM and 4.05 nM, respectively. Besides, the “Ab conc. effective at blocking C5a-induced Ca2+-flux (human neutrophils, 1 nM C5a)” value (shortened to “Ab conc. effective”) with human C5a receptor [3] worked out at 30 µg/mL.

B4: humanized anti-C5aR antibody hAb-F (antibody, human IgG4 S228P, kappa)
light: B3 light with E17Q, Y41F, L42Q, K44R, Q50R, F92Y, Q105G
heavy: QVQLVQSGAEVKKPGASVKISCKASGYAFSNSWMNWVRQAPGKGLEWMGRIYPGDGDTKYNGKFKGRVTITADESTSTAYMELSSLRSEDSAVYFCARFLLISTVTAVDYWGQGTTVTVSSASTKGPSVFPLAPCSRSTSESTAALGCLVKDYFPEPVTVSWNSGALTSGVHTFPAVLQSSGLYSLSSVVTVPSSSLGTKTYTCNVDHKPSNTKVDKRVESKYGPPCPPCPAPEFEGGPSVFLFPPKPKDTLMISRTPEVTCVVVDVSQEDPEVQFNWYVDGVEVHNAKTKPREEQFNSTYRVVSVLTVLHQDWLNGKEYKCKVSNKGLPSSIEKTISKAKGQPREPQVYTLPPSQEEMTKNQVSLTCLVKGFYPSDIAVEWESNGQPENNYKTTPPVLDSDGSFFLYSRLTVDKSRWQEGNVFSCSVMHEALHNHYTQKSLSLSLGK
notes: also called antibody F
On to B4, for which the 50% effective concentration (EC50) with human C5a receptor [1] stood at 1.26 nM; with human C5a receptor [4], 2.55 nM. In the test with human C5a receptor [3], the “Ab conc. tested but not effective at blocking Ca2+-flux (human neutrophils, 1 nM C5a)” value was 10 µg/mL.

B5: humanized anti-C5aR antibody hAb-C (antibody, human IgG4, kappa)
light: B3 light with E17Q, Y41F, L42Q, K44R, Q50R, F92Y, Q105G
heavy: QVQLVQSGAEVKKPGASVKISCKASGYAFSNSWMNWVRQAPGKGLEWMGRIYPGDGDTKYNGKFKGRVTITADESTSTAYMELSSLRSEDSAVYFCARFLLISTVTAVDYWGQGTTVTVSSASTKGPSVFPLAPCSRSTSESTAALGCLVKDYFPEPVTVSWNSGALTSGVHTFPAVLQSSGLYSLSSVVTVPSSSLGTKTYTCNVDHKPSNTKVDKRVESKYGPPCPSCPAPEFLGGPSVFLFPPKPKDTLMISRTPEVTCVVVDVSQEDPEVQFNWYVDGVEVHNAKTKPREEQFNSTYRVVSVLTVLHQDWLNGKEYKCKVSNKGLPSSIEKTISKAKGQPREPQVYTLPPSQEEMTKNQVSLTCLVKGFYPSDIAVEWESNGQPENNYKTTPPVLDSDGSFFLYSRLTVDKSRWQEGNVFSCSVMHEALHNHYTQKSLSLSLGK
notes: also called antibody C
Regarding B5, the EC50 with human C5a receptor [1] amounted to 0.9 nM; with human C5a receptor [4] it was 2.48 nM. Moreover, in the test with human C5a receptor [2], the “blocking … at 5 µg/ml antibody” value is 75%.

B6: humanized anti-C5aR antibody hAb-G (antibody, human IgG4 S228P, kappa)
light: B3 light
heavy: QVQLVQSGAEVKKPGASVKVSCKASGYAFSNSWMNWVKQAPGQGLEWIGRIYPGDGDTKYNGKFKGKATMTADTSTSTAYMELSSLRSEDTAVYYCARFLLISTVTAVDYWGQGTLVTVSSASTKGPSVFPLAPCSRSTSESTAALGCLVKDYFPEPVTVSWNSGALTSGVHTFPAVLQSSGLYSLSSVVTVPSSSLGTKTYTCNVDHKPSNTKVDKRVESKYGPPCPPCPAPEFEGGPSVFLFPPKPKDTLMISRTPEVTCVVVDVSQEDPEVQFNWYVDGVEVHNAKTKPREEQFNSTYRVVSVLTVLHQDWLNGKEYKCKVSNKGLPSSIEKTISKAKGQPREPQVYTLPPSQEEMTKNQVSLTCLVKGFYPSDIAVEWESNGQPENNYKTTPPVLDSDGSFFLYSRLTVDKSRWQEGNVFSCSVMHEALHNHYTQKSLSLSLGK
notes: also called antibody G
As to B6, the 50% effective concentration (EC50) with human C5a receptor [1] was determined as 1.53 nM; with human C5a receptor [4], 3.52 nM. Besides, the “blocking … at 5 µg/ml antibody” value with human C5a receptor [2] is 84%. For the same molecule, the “Ab conc. effective” value with human C5a receptor [3] was 30 µg/mL.

B7: humanized anti-C5aR antibody hAb-N (antibody, human IgG1, kappa)
light: B3 light
heavy: not shown
notes: IgG1; also called antibody N
In the case of B7, the EC50 with human C5a receptor [1] was 1.03 nM; with human C5a receptor [5], 20 nM to 25 nM (2×) and ~3 µg/mL; with human C5a receptor [4], 0.65 nM. Also, the “Ab conc. tested but not effective at blocking Ca2+-flux (human neutrophils, 1 nM C5a)” value with human C5a receptor [3] came out at 0.01 µg/mL. Moreover, in the test with human C5a receptor [5], the Kd is 20 nM to 25 nM (2×) and ~3 µg/mL.

B8: humanized anti-C5aR antibody hAb-O (antibody, human IgG1, kappa)
light: B3 light with E17Q, Y41F, L42Q, K44R, Q50R, F92Y, Q105G
heavy: not shown
notes: IgG1; also called antibody O
For the molecule B8, the 50% effective concentration (EC50) is 0.68 nM with human C5a receptor [1] and 0.48 nM with human C5a receptor [4]. For the same molecule, the “Ab conc. effective” value in the test with human C5a receptor [3] came to 10 µg/mL.

B9: humanized anti-C5aR antibody hAb-S (antibody, human IgG4 S228P, kappa)
light: DVVMTQSPLSLPVTLGEPASISCRSSQSLVHSNGNTYLHWYLQKPGQSPQLLIYKVSNRFSGVPDRFSGSGSGTDFTLKISRVEAEDVGVYFCSQSTLVPLTFGQGTKLEIKRTVAAPSVFIFPPSDEQLKSGTASVVCLLNNFYPREAKVQWKVDNALQSGNSQESVTEQDSKDSTYSLSSTLTLSKADYEKHKVYACEVTHQGLSSPVTKSFNRGEC
heavy: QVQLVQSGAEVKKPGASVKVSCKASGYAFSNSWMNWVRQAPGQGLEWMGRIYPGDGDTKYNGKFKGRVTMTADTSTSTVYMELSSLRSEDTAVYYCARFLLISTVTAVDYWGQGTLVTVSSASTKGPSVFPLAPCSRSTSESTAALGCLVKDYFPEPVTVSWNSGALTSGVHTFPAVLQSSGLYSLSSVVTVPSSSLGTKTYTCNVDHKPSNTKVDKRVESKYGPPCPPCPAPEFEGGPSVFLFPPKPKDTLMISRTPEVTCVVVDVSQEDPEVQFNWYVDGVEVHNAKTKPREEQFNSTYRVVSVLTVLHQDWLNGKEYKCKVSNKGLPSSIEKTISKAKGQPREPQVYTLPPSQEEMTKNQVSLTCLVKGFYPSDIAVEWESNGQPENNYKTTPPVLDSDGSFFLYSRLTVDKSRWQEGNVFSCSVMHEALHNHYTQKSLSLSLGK
notes: also called antibody S
As for B9, a half-maximal effect in the test with human C5a receptor [4] (EC50) was put at 2.69 nM.

B10: human C5a (ligand, UniProt P01031 678-751, looked up)
chain: TLQKKIEEIAAKYKHSVVKKCCYDGACVNNDETCEQRAARISLGPRCIKAFTECCVVASQLRANISHKDMQLGR
modifications: tracer form: 125I-Bolton-Hunter label
notes: C5a is a fragment of it; also called hC5a; recombinant human C5a
On to B10, for which, in the test with human C5a receptor [6], the 50% effective concentration (EC50) was 0.5 nM.
